Measurements published in US20240141039A1 (AGENUS, published 2024).

T1: full-length isoform 2 ECD of human CD96 with a C89S mutation (His-tagged) (human, UniProt P40200 22-519)
T1 construct: also called His-tagged isoform 2 of human CD96 with a C89S mutation; human CD96 extracellular domain isoform 2 C89S
T1 sequence: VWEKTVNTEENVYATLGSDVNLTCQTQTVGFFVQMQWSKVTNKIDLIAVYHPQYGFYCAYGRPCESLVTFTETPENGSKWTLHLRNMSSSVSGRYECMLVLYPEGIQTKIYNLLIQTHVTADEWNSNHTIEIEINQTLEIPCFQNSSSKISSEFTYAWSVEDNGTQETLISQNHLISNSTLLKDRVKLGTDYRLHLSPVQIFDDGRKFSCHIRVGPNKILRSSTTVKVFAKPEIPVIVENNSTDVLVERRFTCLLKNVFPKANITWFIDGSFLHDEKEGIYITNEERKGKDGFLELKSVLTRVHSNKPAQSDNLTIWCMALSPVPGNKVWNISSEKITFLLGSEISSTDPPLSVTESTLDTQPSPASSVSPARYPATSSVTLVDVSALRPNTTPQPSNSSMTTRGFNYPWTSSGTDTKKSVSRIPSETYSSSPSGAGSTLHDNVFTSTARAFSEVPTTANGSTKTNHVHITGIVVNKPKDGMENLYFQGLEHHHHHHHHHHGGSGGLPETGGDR

T2: wild type full-length human CD96 isoform 1 expressed on CHO cells (human, UniProt P40200 22-585)
T2 construct: whole, on cells; also called human CD96-CHO (isoform 1)
T2 sequence (looked up): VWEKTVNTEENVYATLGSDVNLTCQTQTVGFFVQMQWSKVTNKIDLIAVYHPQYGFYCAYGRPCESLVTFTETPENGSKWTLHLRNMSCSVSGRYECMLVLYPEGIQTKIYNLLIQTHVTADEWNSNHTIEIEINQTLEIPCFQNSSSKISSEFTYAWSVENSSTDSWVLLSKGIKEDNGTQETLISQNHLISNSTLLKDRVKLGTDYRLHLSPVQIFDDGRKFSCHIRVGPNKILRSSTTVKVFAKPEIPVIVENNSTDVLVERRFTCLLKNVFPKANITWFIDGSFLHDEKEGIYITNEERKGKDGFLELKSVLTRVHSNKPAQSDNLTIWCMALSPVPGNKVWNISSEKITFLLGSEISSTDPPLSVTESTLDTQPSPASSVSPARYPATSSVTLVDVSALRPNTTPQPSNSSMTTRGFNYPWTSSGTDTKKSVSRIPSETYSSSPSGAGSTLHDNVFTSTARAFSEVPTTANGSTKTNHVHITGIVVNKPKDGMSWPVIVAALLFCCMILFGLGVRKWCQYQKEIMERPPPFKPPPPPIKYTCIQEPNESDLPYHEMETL


Tests used:
[1] = target: T1, full-length isoform 2 ECD of human CD96 …; assay: SPR Biacore T200, Protein A capture, 1:1 model, experiment #2
Protocol: (§1) Briefly, surface plasmon resonance experiments were performed using a Biacore T200 instrument, and the association rate (kₐ), dissociation rate (kd), and dissociation constant (KD) were calculated from each experiment using a 1:1 binding model with Biacore T200 Evaluation Software.
(§2) Multispecific molecules were captured using a 30-sec injection at a flow rate of 10 μl/min to reach about 350 resonance units (RUs). […] The sensor chip was regenerated between cycles with two 30-sec injections of 10 mM glycine, pH 1.5. Sensorgrams were evaluated and fit to a simple Langmuir 1:1 interaction model using the global data analysis option of BIAevaluation 3.0 software. Data quality was verified by visually inspecting deviations and curve fitting, and by evaluating the parameters of Rₘₐₓ, Chi2, and Tc.

[2] = target: T3, full-length ECD of cynomolgus monkey TIGIT (His-tagged) (cynomolgus monkey); assay: as above
T3 construct: also called His-tagged cynomolgus monkey TIGIT; cyno TIGIT extracellular domain
Protocol: as §1, §2

[3] = target: T2, wild type full-length human CD96 …; assay: flow cytometry, human CD96 (isoform 1) CHO cells, 1 experiment
Protocol: For the antibody binding assay, a frozen aliquot of human CD96-CHO cells (isoform 1 or isoform 2) was thawed at 37° C. and then transferred to a tube containing DPBS supplemented with 0.5% Bovine Serum Albumin and 0.05% Sodium Azide (FACS Buffer). Cells were centrifuged at 300 g for five minutes. The supernatant was discarded, and cells resuspended in FACS buffer were seeded in a 96-well U-bottom tissue culture plate at a density of 2×10⁵ cells per well in 50 μL. In a separate microplate, a 2× concentrated intermediate stock of each antibody was prepared. Antibodies were serially diluted 1-to-3 in FACS buffer. A total of 11 working dilutions ranging from 60 μg/mL to 0.001 μg/mL were prepared. Fifty microlitres of each dilution were then transferred to the microplate containing human CD96-CHO cells. The cells were then incubated for 45 minutes at 4° C. […] After a 30-minute incubation on ice, the cells were washed twice with cold FACS Buffer, and the cells were analyzed by flow cytometry (BD LSR Fortessa Flow Cytometer). The data were analyzed using the FlowJo software by sequentially gating the FSC-A vs. SSC-A, and SSC-H vs. SSC-A. Mean fluorescence intensity (MFI) values for PE were calculated, and the data were plotted by GraphPad Prism software.

[4] = target: T4, wild type full-length cynomolgus monkey TIGIT expressed on CHO cells (cynomolgus monkey, UniProt A0A7N9I9V4 89-312); assay: flow cytometry, cynomolgus TIGIT CHO cells, geomean of 2 experiments
T4 construct: whole, on cells; also called cynomolgus TIGIT-CHO cells
T4 sequence (A0A7N9I9V4 entry or part of it): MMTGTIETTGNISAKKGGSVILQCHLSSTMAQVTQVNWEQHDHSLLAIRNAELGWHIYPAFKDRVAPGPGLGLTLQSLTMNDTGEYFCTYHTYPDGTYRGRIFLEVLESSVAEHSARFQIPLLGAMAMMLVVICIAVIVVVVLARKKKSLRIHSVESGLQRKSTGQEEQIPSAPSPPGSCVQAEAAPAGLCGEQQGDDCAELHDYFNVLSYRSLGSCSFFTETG

[5] = target: T4, wild type full-length cynomolgus monkey …; assay: flow cytometry, blocking of CD155-Fc-PE binding to cynomolgus TIGIT CHO cells, geomean of 2 experiments

Binder | Kd [1] | koff [1] | kon [1] | Kd [2] | koff [2] | kon [2] | EC50 [3] | EC50 [4] | IC50 [5]
anti-TIGIT×CD96 multispecific molecule BA123 (bispecific antibody, human IgG1, kappa, lambda, copies: 1 + 1 + 1 + 1) heavy 1: QVQLVQSGAEVKKPGASVKVSCKASGYTFTSYGISWVRQAPGQGLEWMGWISAYNANTNYAQKLQGRVTMTTDTSTSTAYMELRSLRSDDTAVYYCARSAGVLGGMDVWGRGTLVTVSSASTKGPSVFPLAPSSKSTSGGTAALGCLVKDYFPEPVTVSWNSGALTSGVHTFPAVLQSSGLYSLSSVVTVPSSSLGTQTYICNVNHKPSNTKVDKRVEPKSCDKTHTCPPCPAPELLGGPDVFLFPPKPKDTLMISRTPEVTCVVVDVSHEDPEVKFNWYVDGVEVHNAKTKPREEQYNSTYRVVSVLTVLHQDWLNGKEYKCKVSNKALPAPIEKTISKAKGQPREPQVYTLPPSREEMTKNQVSLSCAVKGFYPSDIAVEWESNGQPENNYKTTPPVLDSDGSFFLVSKLTVDKSRWQQGNVFSCSVMHEALHNHYTQKSLSLSPG light 1: not shown heavy 2: EVQLVQSGAEVKKPGSSVKVSCKASGYTFASYGISWVRQAPGQGLEWMGGITPFFNRVDVAEKFQGRVTITADKSTSTAYIELSSLRSEDTAVYYCARDLRRGGVGDAFDIWGRGTLVTVSSASTKGPSVFPLAPSSKSTSGGTAALGCLVKDYFPEPVTVSWNSGALTSGVHTFPAVLQSSGLYSLSSVVTVPSSSLGTQTYICNVNHKPSNTKVDKRVEPKSCDKTHTCPPCPAPELLGGPDVFLFPPKPKDTLMISRTPEVTCVVVDVSHEDPEVKFNWYVDGVEVHNAKTKPREEQYNSTYRVVSVLTVLHQDWLNGKEYKCKVSNKALPLPEEKTISKAKGQPREPQVYTLPPSREEMTKNQVSLWCLVKGFYPSDIAVEWESNGQPENNYKTTPPVLDSDGSFFLYSKLTVDKSRWQQGNVFSCSVMHEALHNHYTQKSLSLSPG light 2: QSALTQPRSVSGSPGQSVTISCTGTSPDVGSHAYRSWYQQHPGKAPKLMIYEVSYRPSGVSNRFSGSKSGNTASLTISGLQAEDEADYYCSSYPPSSATVFGAGTKLTVLGQPKAAPSVTLFPPSSEELQANKATLVCLISDFYPGAVTVAWKADSSPVKAGVETTTPSKQSNNKYAASSYLSLTPEQWKSHRSYSCQVTHEGSTVEKTVAPTEC | 85 nM | 0.00083 s⁻¹ | 9760 M⁻¹ s⁻¹ | 4.27 nM | 0.00135 s⁻¹ | 315000 M⁻¹ s⁻¹ | 0.0113 µg/mL | 0.165 µg/mL | 2.35 µg/mL
anti-TIGIT×CD96 multispecific molecule BA127 (bispecific antibody, human IgG1, kappa, lambda, Anti-CD96 arm = BA139, anti-TIGIT arm = BA150; copies: 1 + 1 + 1 + 1) heavy 1: QVQLVQSGAEVKKPGASVKVSCKASGYTFTTYALHWVRQAPGQRLEWMGWINTGSGDTKYSQKFQGRVTITRDTSASTAYMELSSLRSEDTAVYYCARSLGVYYGMDVWGQGTLVTVSSASTKGPSVFPLAPSSKSTSGGTAALGCLVKDYFPEPVTVSWNSGALTSGVHTFPAVLQSSGLYSLSSVVTVPSSSLGTQTYICNVNHKPSNTKVDKRVEPKSCDKTHTCPPCPAPELLGGPDVFLFPPKPKDTLMISRTPEVTCVVVDVSHEDPEVKFNWYVDGVEVHNAKTKPREEQYNSTYRVVSVLTVLHQDWLNGKEYKCKVSNKALPAPIEKTISKAKGQPREPQVYTLPPSREEMTKNQVSLSCAVKGFYPSDIAVEWESNGQPENNYKTTPPVLDSDGSFFLVSKLTVDKSRWQQGNVFSCSVMHEALHNHYTQKSLSLSPG light 1: not shown heavy 2: EVQLVQSGAEVKKPGSSVKVSCKASGYTFASYGISWVRQAPGQGLEWMGGITPFFNRVDVAEKFQGRVTITADKSTSTAYIELSSLRSEDTAVYYCARDLRRGGVGDAFDIWGRGTLVTVSSASTKGPSVFPLAPSSKSTSGGTAALGCLVKDYFPEPVTVSWNSGALTSGVHTFPAVLQSSGLYSLSSVVTVPSSSLGTQTYICNVNHKPSNTKVDKRVEPKSCDKTHTCPPCPAPELLGGPDVFLFPPKPKDTLMISRTPEVTCVVVDVSHEDPEVKFNWYVDGVEVHNAKTKPREEQYNSTYRVVSVLTVLHQDWLNGKEYKCKVSNKALPLPEEKTISKAKGQPREPQVYTLPPSREEMTKNQVSLWCLVKGFYPSDIAVEWESNGQPENNYKTTPPVLDSDGSFFLYSKLTVDKSRWQQGNVFSCSVMHEALHNHYTQKSLSLSPG light 2: QSALTQPRSVSGSPGQSVTISCTGTSPDVGSHAYRSWYQQHPGKAPKLMIYEVSYRPSGVSNRFSGSKSGNTASLTISGLQAEDEADYYCSSYPPSSATVFGAGTKLTVLGQPKAAPSVTLFPPSSEELQANKATLVCLISDFYPGAVTVAWKADSSPVKAGVETTTPSKQSNNKYAASSYLSLTPEQWKSHRSYSCQVTHEGSTVEKTVAPTEC | 19.7 nM | 0.000796 s⁻¹ | 40500 M⁻¹ s⁻¹ | 3.7 nM | 0.00129 s⁻¹ | 348000 M⁻¹ s⁻¹ | 0.0489 µg/mL | 0.258 µg/mL | 2.81 µg/mL
